Source: publication PMC4028237, “GmFT2a and GmFT5a Redundantly and Differentially Regulate Flowering through Interaction with and Upregulation of the bZIP Transcription Factor GmFDL19 in Soybean”

Target: T1, GmFDL19 (Glycine max, UniProt I1N8K2 1-320)
T1 sequence: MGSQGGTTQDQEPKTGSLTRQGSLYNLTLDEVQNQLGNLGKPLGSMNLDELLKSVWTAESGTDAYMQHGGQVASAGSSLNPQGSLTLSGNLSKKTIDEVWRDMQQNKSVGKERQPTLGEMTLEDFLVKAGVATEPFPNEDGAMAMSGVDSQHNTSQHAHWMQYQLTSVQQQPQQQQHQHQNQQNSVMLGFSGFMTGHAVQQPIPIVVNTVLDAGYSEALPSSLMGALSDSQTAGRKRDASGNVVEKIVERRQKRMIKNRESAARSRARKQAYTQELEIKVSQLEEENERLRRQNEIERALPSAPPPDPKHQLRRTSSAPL
Assay: EMSA; Invitrogen EMSA kit E33075, 6% native TBE polyacrylamide gel, 200 V 45 min, SYBR Green stain; binding buffer, salt, pH and temperature not stated
Conditions: protein: recombinant; tags: His (pET29b, NdeI/SalI); chain copies: 2; label: none (SYBR Green stain); blunt

B1: GmAP1aP-1280 CArG box (dsDNA)
DNA 1: GCAACCATCCATCCAAAAATAAGGCAAAAAAAATAAACAT
DNA 2: ATGTTTATTTTTTTTGCCTTATTTTTGGATGGATGGTTGC
binding result: no binding
